Laboratory results published in IntAct's records for PubMed 23064147.

B1: Spindle assembly abnormal protein 6 (Caenorhabditis elegans), O62479 (parent)
chain: MTSKIALFDQTLIASLLQPLSLNQPDFKAYKTKVKLKISEQRNETSGEKELKFEISRSDDFEFLFSETLNNEKYQILARDHDLTVDFDAFPKVIIQHLLCKNIVKNLEEDGEVDARKKAGYHSIADPGKPTEINIILDAEKNFCSFELFSKTPISKGKIFSIKLHAVRGDHLISHLLKICSSQAVKLSTFYKSADELASLRQKCGDLEKQVEKLSGVKEEFEEMSEKFKELEDEVELVKEERENIRLLVEDKEDEVADLKQDTESLQKQLEENQEELEIVGNMLREEQGKVDQLQKRNVAHQKEIGKLRAELGTAQRNLEKADQLLKRNSQQQNQQSLDMRKLGELEADLKEKDSMVESLTETIGILRKELENEKLKAAENMDSFEKLSMENENLKEKIAHYRAQRFSPAPSGLPGLQTGLTNRLTPSFKPVLGPHTPYGANLNSRTPFRDNTTLNFQNSTIATPHAFRFNSQLIADETTGSSVTNTPPAQR
partner: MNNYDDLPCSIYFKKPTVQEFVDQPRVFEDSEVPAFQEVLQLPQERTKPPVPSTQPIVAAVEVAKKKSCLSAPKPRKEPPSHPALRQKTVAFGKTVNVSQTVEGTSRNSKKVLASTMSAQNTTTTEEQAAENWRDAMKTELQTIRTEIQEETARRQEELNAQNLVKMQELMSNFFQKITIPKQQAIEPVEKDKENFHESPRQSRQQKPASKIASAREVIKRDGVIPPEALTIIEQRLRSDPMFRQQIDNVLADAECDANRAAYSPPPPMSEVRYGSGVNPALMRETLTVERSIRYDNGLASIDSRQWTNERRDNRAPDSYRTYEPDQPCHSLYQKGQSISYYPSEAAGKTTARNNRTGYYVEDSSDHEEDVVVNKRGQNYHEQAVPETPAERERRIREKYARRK

Key:
sas5_caeel sas-5, Q20010 [1] = variants of: B1; details: with sas5_caeel sas-5, Q20010
sas5_caeel sas-5, Q20010 [2] = variants of: B1; details: with sas5_caeel sas-5, Q20010; remark: listed apart in the source

| effect of a mutation on the interaction (sas5_caeel sas-5, Q20010 [1]) | effect of a mutation on the interaction (sas5_caeel sas-5, Q20010 [2]) | Variant |
| --- | --- | --- |
| decreasing interaction | disrupting interaction | MTSKIALFDQTLIASLLQPLSLNQPDFKAYKTKVKLKISEQRNETSGEKELKFEISRSDDFEFLFSETLNNEKYQILARDHDLTVDFDAFPKVIIQHLLCKNIVKNLEEDGEVDARKKAGYHSIADPGKPTEINIILDAEKNFCSFELFSKTPISKGKIFSIKLHAVRGDHLISHLLKICSSQAVKLSTFYKSADELASLRQKCGDLEKQVEKLSGVKEEFEEMSEKFKELEDEVELVKEERENIRLLVEDKEDEVADLKQDTESLQKQLEENQAELEIVGNMLREEQGKVDQLQKRNVAHQKEIGKLRAELGTAQRNLEKADQLLKRNSQQQNQQSLDMRKLGELEADLKEKDSMVESLTETIGILRKELENEKLKAAENMDSFEKLSMENENLKEKIAHYRAQRFSPAPSGLPGLQTGLTNRLTPSFKPVLGPHTPYGANLNSRTPFRDNTTLNFQNSTIATPHAFRFNSQLIADETTGSSVTNTPPAQR [E275A] |
| decreasing interaction | disrupting interaction | MTSKIALFDQTLIASLLQPLSLNQPDFKAYKTKVKLKISEQRNETSGEKELKFEISRSDDFEFLFSETLNNEKYQILARDHDLTVDFDAFPKVIIQHLLCKNIVKNLEEDGEVDARKKAGYHSIADPGKPTEINIILDAEKNFCSFELFSKTPISKGKIFSIKLHAVRGDHLISHLLKICSSQAVKLSTFYKSADELASLRQKCGDLEKQVEKLSGVKEEFEEMSEKFKELEDEVELVKEERENIRLLVEDKEDEVADLKQDTESLQKQLEENQEALEIVGNMLREEQGKVDQLQKRNVAHQKEIGKLRAELGTAQRNLEKADQLLKRNSQQQNQQSLDMRKLGELEADLKEKDSMVESLTETIGILRKELENEKLKAAENMDSFEKLSMENENLKEKIAHYRAQRFSPAPSGLPGLQTGLTNRLTPSFKPVLGPHTPYGANLNSRTPFRDNTTLNFQNSTIATPHAFRFNSQLIADETTGSSVTNTPPAQR [E276A] |
| decreasing interaction | disrupting interaction | MTSKIALFDQTLIASLLQPLSLNQPDFKAYKTKVKLKISEQRNETSGEKELKFEISRSDDFEFLFSETLNNEKYQILARDHDLTVDFDAFPKVIIQHLLCKNIVKNLEEDGEVDARKKAGYHSIADPGKPTEINIILDAEKNFCSFELFSKTPISKGKIFSIKLHAVRGDHLISHLLKICSSQAVKLSTFYKSADELASLRQKCGDLEKQVEKLSGVKEEFEEMSEKFKELEDEVELVKEERENIRLLVEDKEDEVADLKQDTESLQKQLEENQEELAIVGNMLREEQGKVDQLQKRNVAHQKEIGKLRAELGTAQRNLEKADQLLKRNSQQQNQQSLDMRKLGELEADLKEKDSMVESLTETIGILRKELENEKLKAAENMDSFEKLSMENENLKEKIAHYRAQRFSPAPSGLPGLQTGLTNRLTPSFKPVLGPHTPYGANLNSRTPFRDNTTLNFQNSTIATPHAFRFNSQLIADETTGSSVTNTPPAQR [E278A] |
